PMC9482650, “Quantitative fragmentomics allow affinity mapping of interactomes” (Nature Communications, 2022)

T1: APBA2_1, Q99767
T1 sequence (Q99767 563-664, limits assumed, looked up): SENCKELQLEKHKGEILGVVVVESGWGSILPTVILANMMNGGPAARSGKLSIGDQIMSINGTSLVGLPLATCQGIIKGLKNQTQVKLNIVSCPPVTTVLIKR

T2: DFNB31_3, Q9P202
T2 sequence (Q9P202 811-907, limits assumed, looked up): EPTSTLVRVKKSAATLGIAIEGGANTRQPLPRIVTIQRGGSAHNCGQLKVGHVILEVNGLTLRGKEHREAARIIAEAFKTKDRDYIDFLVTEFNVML

T3: DLG3_3, Q92796
T3 sequence (Q92796 374-475, limits assumed, looked up): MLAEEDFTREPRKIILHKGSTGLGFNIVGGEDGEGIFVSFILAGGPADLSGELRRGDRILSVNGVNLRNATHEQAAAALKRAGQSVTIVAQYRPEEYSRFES

T4: GRIP1_7, Q9Y3R0
T4 sequence (Q9Y3R0 999-1096, limits assumed, looked up): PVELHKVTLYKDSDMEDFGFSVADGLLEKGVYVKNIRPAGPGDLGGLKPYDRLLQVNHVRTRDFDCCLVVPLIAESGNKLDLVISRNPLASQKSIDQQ

T5: HTRA4, P83105
T5 sequence (P83105 378-476, limits assumed, looked up): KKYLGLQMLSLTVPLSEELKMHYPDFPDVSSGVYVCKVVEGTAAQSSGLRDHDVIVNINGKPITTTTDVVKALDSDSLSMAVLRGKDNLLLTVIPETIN

T6: NHERF3_1, Q5T2W1
T6 sequence (Q5T2W1 4-100, limits assumed, looked up): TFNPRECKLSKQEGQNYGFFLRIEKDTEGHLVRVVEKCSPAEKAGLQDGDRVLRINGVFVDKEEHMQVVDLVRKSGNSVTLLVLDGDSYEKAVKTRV

T7: PDZD2_2, O15018
T7 sequence (O15018 329-429, limits assumed, looked up): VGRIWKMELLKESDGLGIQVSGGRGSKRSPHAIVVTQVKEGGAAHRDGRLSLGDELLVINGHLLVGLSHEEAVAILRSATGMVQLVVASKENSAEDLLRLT

T8: TJP3_3, O95049
T8 sequence (O95049 375-456, limits assumed, looked up): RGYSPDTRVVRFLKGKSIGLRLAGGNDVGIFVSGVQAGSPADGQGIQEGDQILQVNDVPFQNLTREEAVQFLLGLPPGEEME


Key:
Test in all cases: holdup assay
Design in all cases: key: below the threshold = too weak to quantify, mostly under pKd 3.1 to 4
Conditions in all cases: plain residues with an end cap or a label only (N-terminal biotin on a linker: ahx)
APBA2_1, Q99767 = target: T1, APBA2_1, Q99767
DFNB31_3, Q9P202 = target: T2, DFNB31_3, Q9P202
DLG1_3, Q12959 = target: DLG1_3, Q12959
DLG2_2, Q15700 = target: DLG2_2, Q15700
DLG3_3, Q92796 = target: T3, DLG3_3, Q92796
DLG4_1, P78352 = target: DLG4_1, P78352
DLG4_2, P78352 = target: DLG4_2, P78352
DLG4_3, P78352 = target: DLG4_3, P78352
FRMPD2_1, Q68DX3 = target: FRMPD2_1, Q68DX3
FRMPD4, Q14CM0 = target: FRMPD4, Q14CM0
GOPC, Q9HD26 = target: GOPC, Q9HD26
GORASP2, Q9H8Y8 = target: GORASP2, Q9H8Y8
GRIP1_7, Q9Y3R0 = target: T4, GRIP1_7, Q9Y3R0
GRIP2_3, Q9C0E4 = target: GRIP2_3, Q9C0E4
HTRA4, P83105 = target: T5, HTRA4, P83105
Inadl_2, Q8NI35 = target: Inadl_2, Q8NI35
Inadl_8, Q8NI35 = target: Inadl_8, Q8NI35
LIMK2, P53671 = target: LIMK2, P53671
LNX1_1, Q8TBB1 = target: LNX1_1, Q8TBB1
LNX1_3, Q8TBB1 = target: LNX1_3, Q8TBB1
MAGI2_3, Q86UL8 = target: MAGI2_3, Q86UL8
MAGI2_5, Q86UL8 = target: MAGI2_5, Q86UL8
MAST2, Q6P0Q8 = target: MAST2, Q6P0Q8
NHERF3_1, Q5T2W1 = target: T6, NHERF3_1, Q5T2W1
NHERF4_1, Q86UT5-2 = target: NHERF4_1, Q86UT5-2
NHERF4_4, Q86UT5 = target: NHERF4_4, Q86UT5
PDZD2_2, O15018 = target: T7, PDZD2_2, O15018
SCRIB_1, Q14160 = target: SCRIB_1, Q14160
SCRIB_2, Q14160 = target: SCRIB_2, Q14160
SNX27, Q96L92 = target: SNX27, Q96L92
TJP3_3, O95049 = target: T8, TJP3_3, O95049

Sequence of MAST2, Q6P0Q8 (Q6P0Q8 1099-1202): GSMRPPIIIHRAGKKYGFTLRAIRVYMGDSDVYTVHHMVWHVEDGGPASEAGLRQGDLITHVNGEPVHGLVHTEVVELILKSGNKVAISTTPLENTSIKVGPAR
Sequence of LIMK2, P53671 (P53671 143-248): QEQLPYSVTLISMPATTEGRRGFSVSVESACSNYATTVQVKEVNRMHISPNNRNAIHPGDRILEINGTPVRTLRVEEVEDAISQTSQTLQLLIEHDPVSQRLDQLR
Sequence of DLG4_2, P78352 (P78352 155-259): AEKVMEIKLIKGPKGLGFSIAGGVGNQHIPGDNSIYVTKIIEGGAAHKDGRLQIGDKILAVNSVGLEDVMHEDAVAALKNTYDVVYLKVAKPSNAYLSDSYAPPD
Sequence of NHERF4_4, Q86UT5 (Q86UT5 464-550): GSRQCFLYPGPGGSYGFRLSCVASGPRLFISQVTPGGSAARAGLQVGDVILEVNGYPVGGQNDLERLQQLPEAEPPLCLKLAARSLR
Sequence of Inadl_8, Q8NI35 (Q8NI35 1425-1530): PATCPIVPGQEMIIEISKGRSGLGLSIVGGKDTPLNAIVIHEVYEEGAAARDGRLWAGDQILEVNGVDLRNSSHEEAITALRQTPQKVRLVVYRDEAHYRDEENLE
Sequence of Inadl_2, Q8NI35 (Q8NI35 238-335): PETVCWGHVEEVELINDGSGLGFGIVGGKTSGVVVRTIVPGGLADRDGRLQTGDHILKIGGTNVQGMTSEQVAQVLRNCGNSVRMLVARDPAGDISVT
Sequence of DLG2_2, Q15700 (Q15700 189-283): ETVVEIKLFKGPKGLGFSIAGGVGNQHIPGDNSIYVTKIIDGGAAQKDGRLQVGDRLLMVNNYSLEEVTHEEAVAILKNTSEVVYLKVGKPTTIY
Sequence of DLG1_3, Q12959 (Q12959 457-571): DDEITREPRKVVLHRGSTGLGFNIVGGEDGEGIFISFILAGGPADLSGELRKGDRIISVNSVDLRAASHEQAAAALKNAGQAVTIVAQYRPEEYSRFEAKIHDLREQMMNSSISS
Sequence of NHERF4_1, Q86UT5-2 (Q86UT5 other isoform, or with tags, fused parts or gaps): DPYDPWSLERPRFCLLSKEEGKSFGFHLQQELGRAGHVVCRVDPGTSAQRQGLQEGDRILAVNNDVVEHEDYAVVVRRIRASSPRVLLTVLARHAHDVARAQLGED
Sequence of MAGI2_5, Q86UL8 (Q86UL8 915-1017): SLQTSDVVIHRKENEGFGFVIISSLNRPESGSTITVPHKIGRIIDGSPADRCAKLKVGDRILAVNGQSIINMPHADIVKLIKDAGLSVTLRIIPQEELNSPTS
Sequence of DLG4_1, P78352 (P78352 62-152): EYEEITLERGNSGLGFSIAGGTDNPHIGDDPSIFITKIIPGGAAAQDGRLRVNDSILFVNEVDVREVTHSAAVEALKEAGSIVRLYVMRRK
Sequence of LNX1_3, Q8TBB1 (Q8TBB1 500-596): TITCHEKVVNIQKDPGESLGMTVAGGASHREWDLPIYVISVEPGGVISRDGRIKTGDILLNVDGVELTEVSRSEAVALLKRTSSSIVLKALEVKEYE
Sequence of SCRIB_2, Q14160 (Q14160 857-960): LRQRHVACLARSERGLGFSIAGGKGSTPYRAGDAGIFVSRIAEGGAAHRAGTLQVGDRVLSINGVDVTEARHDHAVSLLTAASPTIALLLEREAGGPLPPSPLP
Sequence of FRMPD4, Q14CM0 (Q14CM0 67-160): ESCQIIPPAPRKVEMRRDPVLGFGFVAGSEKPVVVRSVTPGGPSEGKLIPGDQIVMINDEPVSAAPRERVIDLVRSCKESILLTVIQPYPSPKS
Sequence of GRIP2_3, Q9C0E4 (Q9C0E4 238-339): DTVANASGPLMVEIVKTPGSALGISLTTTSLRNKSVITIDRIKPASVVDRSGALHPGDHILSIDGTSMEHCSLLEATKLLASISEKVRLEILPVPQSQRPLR
Sequence of MAGI2_3, Q86UL8 (Q86UL8 600-682): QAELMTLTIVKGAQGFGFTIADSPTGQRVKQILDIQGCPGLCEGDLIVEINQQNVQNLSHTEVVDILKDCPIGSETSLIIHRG
Sequence of DLG4_3, P78352 (P78352 306-403): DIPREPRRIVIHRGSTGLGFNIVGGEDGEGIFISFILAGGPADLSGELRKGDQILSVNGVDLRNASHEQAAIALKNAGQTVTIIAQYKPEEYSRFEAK
Sequence of FRMPD2_1, Q68DX3 (Q68DX3 770-861): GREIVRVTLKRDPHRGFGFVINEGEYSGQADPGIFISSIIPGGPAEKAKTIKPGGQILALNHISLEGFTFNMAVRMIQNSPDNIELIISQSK
Sequence of SCRIB_1, Q14160 (Q14160 718-814): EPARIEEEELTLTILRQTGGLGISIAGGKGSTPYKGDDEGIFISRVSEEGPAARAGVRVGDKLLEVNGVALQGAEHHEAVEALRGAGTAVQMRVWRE
Sequence of LNX1_1, Q8TBB1 (Q8TBB1 261-371): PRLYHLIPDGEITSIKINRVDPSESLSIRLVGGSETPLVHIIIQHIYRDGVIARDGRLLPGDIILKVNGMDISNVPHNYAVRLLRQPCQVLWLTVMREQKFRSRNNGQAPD

| Binder | pKd (APBA2_1, Q99767) | pKd (DFNB31_3, Q9P202) | pKd (DLG1_3, Q12959) | pKd (DLG2_2, Q15700) | pKd (DLG3_3, Q92796) | pKd (DLG4_1, P78352) | pKd (DLG4_2, P78352) | pKd (DLG4_3, P78352) | pKd (FRMPD2_1, Q68DX3) | pKd (FRMPD4, Q14CM0) | pKd (GOPC, Q9HD26) | pKd (GORASP2, Q9H8Y8) | pKd (GRIP1_7, Q9Y3R0) | pKd (GRIP2_3, Q9C0E4) | pKd (HTRA4, P83105) | pKd (Inadl_2, Q8NI35) | pKd (Inadl_8, Q8NI35) | pKd (LIMK2, P53671) | pKd (LNX1_1, Q8TBB1) | pKd (LNX1_3, Q8TBB1) | further results |
| --- | --- | --- | --- | --- | --- | --- | --- | --- | --- | --- | --- | --- | --- | --- | --- | --- | --- | --- | --- | --- | --- |
| KKNKDKEYYV [NRXN1, Q9ULB1] | below the threshold | below the threshold | below the threshold | below the threshold | below the threshold | below the threshold | below the threshold | below the threshold | below the threshold | 3.58 | below the threshold | 4.33 | 4.09 | below the threshold | below the threshold | 4.55 | below the threshold | below the threshold | below the threshold | below the threshold | pKd (MAGI2_3, Q86UL8): below the threshold; pKd (MAGI2_5, Q86UL8): 3.57; pKd (MAST2, Q6P0Q8): below the threshold; pKd (NHERF3_1, Q5T2W1): 3.84; pKd (NHERF4_1, Q86UT5-2): below the threshold; pKd (NHERF4_4, Q86UT5): below the threshold; pKd (PDZD2_2, O15018): 3.99; pKd (SCRIB_1, Q14160): below the threshold; pKd (SCRIB_2, Q14160): below the threshold; pKd (SNX27, Q96L92): below the threshold; pKd (TJP3_3, O95049): below the threshold |
| EDEDEQVSAV [RAPGEF2, Q9Y4G8] | below the threshold | below the threshold | below the threshold | below the threshold | below the threshold | 3.59 | 3.95 | below the threshold | below the threshold | below the threshold | below the threshold | below the threshold | below the threshold | below the threshold | below the threshold | below the threshold | 3.86 | below the threshold | below the threshold | below the threshold | pKd (MAGI2_3, Q86UL8): 4.23; pKd (MAGI2_5, Q86UL8): 4.46; pKd (MAST2, Q6P0Q8): 4.92; pKd (NHERF3_1, Q5T2W1): below the threshold; pKd (NHERF4_1, Q86UT5-2): below the threshold; pKd (NHERF4_4, Q86UT5): below the threshold; pKd (PDZD2_2, O15018): 5.72; pKd (SCRIB_1, Q14160): below the threshold; pKd (SCRIB_2, Q14160): below the threshold; pKd (SNX27, Q96L92): 5.32; pKd (TJP3_3, O95049): below the threshold |
